Data: article PMC11417211

Legend:
[1] = molecular target: α-chymotrypsin from bovine pancreas (bovine)
[2] = molecular target: Cathepsin G from human leukocytes (human) (UniProt P08311)
[3] = molecular target: elastase from porcine pancreas (porcine) (UniProt P00772)
Chain of UniProt P00772 (P00772 27-266): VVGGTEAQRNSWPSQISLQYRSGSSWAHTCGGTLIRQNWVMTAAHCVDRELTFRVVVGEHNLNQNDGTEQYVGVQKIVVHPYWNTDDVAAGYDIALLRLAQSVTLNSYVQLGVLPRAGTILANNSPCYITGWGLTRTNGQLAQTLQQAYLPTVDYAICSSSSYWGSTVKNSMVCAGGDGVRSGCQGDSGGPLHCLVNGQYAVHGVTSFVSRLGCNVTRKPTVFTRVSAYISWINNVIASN

Chain of UniProt P08311 (P08311 21-244): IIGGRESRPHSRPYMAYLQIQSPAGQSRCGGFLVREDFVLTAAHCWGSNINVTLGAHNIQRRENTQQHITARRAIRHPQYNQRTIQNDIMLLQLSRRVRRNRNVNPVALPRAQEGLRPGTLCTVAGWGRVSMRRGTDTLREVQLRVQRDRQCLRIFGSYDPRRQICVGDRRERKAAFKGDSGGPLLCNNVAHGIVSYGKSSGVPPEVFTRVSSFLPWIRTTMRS

E. coli expressed Hyalomma anatolicum serpin-1 (eHAMpin-1) (natural protein)
decrease of the proteolytic activity of the protease (96 nM) after preincubation with 1 μM eHAMpin-1 for 30 min at 37 °C; chromogenic substrate [1]: > 90% | decrease of the proteolytic activity of the protease (110 nM) after preincubation with 1 μM eHAMpin-1 for 30 min at 37 °C; chromogenic substrate [2]: > 90% | decrease of the proteolytic activity of the protease (100 nM) after preincubation with 1 μM eHAMpin-1 for 30 min at 37 °C; chromogenic substrate [3]: > 45%
